The text below walks through data of US20070160982A1 (University of Texas, published 2007).

The target of this experiment is GST-F2F3 (GST fusion of CPSF30 zinc fingers F2F3, amino acids 61-121) (UniProt P08515 1-218 = GST).

B1: M186 mutant NS1A protein (other)
chain: MDSNTVSSFQVDCFLWHVRKQVVDQELGDAPFLDRLRRDQKSLRGRGSTLGLNIEAATHVGKQIVEKILKEESDEALKMTMASTPASRYITDMTIEELSRDWFMLMPKQKVEGPLCIRIDQAIMDKNIMLKANFSVIFDRLETLILLRAFTEEGAIVGEISPLPSFPGHTIEDVKNAIGVLIGRFLRYDNTVRVSKTLQRFAWGSSNENGRPPLTPKQKRKMARTARSKVRRDKMAD
modifications: 35S-methionine label (in vitro translated)
In the case of B1, the binding result is “no binding”.
